The DeepSol protein solubility set

Assay: soluble on expression in E. coli; label from the status in PepcDB or PDB records

Row | Sequence | soluble on expression in E. coli
1 | MGSDKIHHHHHHMKSVTVADLKADPIVQGYIEVGNRNLAAIGFTEHGLRHVGLVSNIAYNILEKLGYSERECELAAVAAYLHDIGNVINRSGHAQTGALLSAHILERHAMAPEEIAIVIGAIGNHDESDGNPVSNISAALILADKSDVHRSRVRNQDPATFDIHDRVNYAVEHSFLRVYPKDRVALEITINTEICPVMDYFEIFLARMLLCRRAASFLDTVFELKINEVKLL | not soluble
2 | MGSDKIHHHHHHMKTSVKFETIFPLTTAPLIQCITNEITCESMANALLYIDAKPIMADDPREFPQMFQQTSALVLNLGHLSQEREQSLLAASDYARQVNKLTVVDLVGYGASDIRNEVGEKLVHNQPTVVKGNLSEMRTFCQLVSHGRGVDGSPLDQSEEAIEELIQALRQQTQKFPQTVFLATGIQDVLVSQEQVIVLQNGVPELDCFTGTGDLVGALVAALLGEGNAPMTAAVAAVSYFNLCGEKAKTKSQGLADFRQNTLNQLSLLMKEKDWFEAVKGRVL | not soluble
3 | MGSDKIHHHHHHMKTTSVPVAYMPLIDAAPLIVGQEMGFAEAEGISLELIAAPSWSSVRDMLAFGRVDLAHLLSVVPVAMALRLGGVTNPMSAVSVLSVNGNVIGVSRALEARLRAAGYPFDFADAAAAGAALAKVTQGGLTIGVPFPFSMHVELLQVWRSSTPLASVPLDIRTVPPPMMAQALASGEIDAFCVGEPWGSVSVENGAGALLLPGRAIWSFAPEKVLATRADWAETEPHLLGRVMRTVWRAGKWLADPSSRTAAAELLSRPRWLDVPAELVDRALTGELAISPDGEVRDVPGFLEFHHGAANFPWRSQGKWIATQLATRTGMDPSAAARQAADVFRSDLYRAALDGTGADMPGASEKLEGSLIHPTAVASTRGQMILDTDVFFDGRIFDPTT | not soluble
4 | MGSDKIHHHHHHMKVFSERADKPHAYLFGEYTNPLGFDPVELALSEDGQAWQSIFDDPNLSNVYLVDFDWLPPVIADTYRTAGTRDGQQLANSRLDQRDIVLKFIAYCRGDADEKLTFQSLSNFLIRRHNYWVAFDNDGSRMYHVREKTITAEYYGDKMMMITVTLNNFTGVAQSIMPSAHINEMPNIGLGLPTDIVNYVFRTSEFDVNNIGELPVDPLVQGDYFDITLTGIGSPTIANTTTGDAITCTKSLTTGDTFKLIGVNPQINGQAAGINTDNGIIRLASGNNHFKITGCQDLNCTVNFYFKYLN | not soluble
5 | MGSDKIHHHHHHMKVIIVDDDKAMFLILKKMLSKIHNVEVIGTFDRLSTTMEFLENNEVDLAFLDIKISGDNGIDLAKQIVNLKKQINIVFISSHKEFALDSFDVFPLDYIVKPVSQEKLERAIDRASKVIIKSGEEEYKAFIYCFGGLEVRGRNNESVKWISTKSMELFSYLVINSGRSISRGRVIKDIFEEMELKDVESYLNTIVYQLRKALSPLGLKKIITFDSQGYSFDFKDVYVDYIDFISGVESIKEINKDNIDRAKQLVYLYKGDLFDDKEYIWAVGEKEYASNLYSKFLGKVCSWYLENDLINDAYSMGKKLIQYNELDSEVNKIFMNILAARRDKISLNKHYERYAKVLFRELGVKVEDSVEELYRKLIKVLR | not soluble
6 | MGSDKIHHHHHHMKVKPFSLSIPFNTEPPSDWKDAWDVQLYVKVEDEKDYGWGEALVAGSGIINSYLSIINDIAIPLLSRVELSEPIDVRTILEKILFSAGNCGVVSGAISAVEMALWSLKARKSNVELYKLIGDKIRDSVKVYASFPRFGKIDDVLIATRKSLERGFDLVKLHQSPSTVLAAVKAIRENYKEVKIAIDLNSPFDNLDVAKEFVDKVHKYEIEWIEEPLWPPNDYDLLSKLTEFSPIPIAAGENEYSLYGFKKLIESGITYLQPDIAKVGGVTKFLEILDLASKYKVRVLPHDRPDASPISLIYTLNIGLVKSQIEMVEYTIADFPNDLFYSLPKFKDGYISPPENLEVVERNIEKYSYKNRLRILHFSDLENKLMRKIT | not soluble
7 | MGSDKIHHHHHHMKVKSVSEILIYPPDRIVGDLWIVRNWVTKRNYKVSSPTLAILLYCKIPHTVGDILDFFYEKYGIKNELIHLGLKKLMATDLLLEVKQEMDGSNEVFGLEFDNWYKHNWYMALLYHLVSYDYPFIEDYVAKQRMINYSSQEIDSNRYKEYNSQVSYDIPKATEVKIRETNTSKQKCVNFADLLTMASLGYTRVGSLRVYWNGDPLILRTSPSGGSRHPTETYIVAINVEGLESGWYHISVKDSKLEQIKIGGTDPDDLRLLFPTTYVRPDFHVDLILIFTSIFERNMYRYREPRTFRTIHMDVGHLAATTEIICEKLGYKYLVQYSANDEGIEKFLGLSPLKEGYMASMAIGN | not soluble
8 | MGSDKIHHHHHHMKVTIIGAAGQIPHFLIPMLQKQTDAELTLFARNATSRLLDYSKPTVRIVDGDASKSGDVKTAITDADVVFMDFDNPEAVKNVIKVMDQLGKKRLIVAGVLGVYDEVAGAFGKWNNMMIGSGYLPHKQAVTELEKSDLDYTYMRMTWLYDQDGNTNYETQKKGQPLIGAQVTRQAVSQYVIDMIKNPELGIRESNGVVEPNTNFAKPSFY | not soluble
9 | MGSDKIHHHHHHMKVTVTTLELKDKITIASKALAKKSVKPILAGFLFEVKDGNFYICATDLETGVKATVNAAEISGEARFVVPGDVIQKMVKVLPDEITELSLEGDALVISSGSTVFRITTMPADEFPEITPAESGITFEVDTSLLEEMVEKVIFAAAKDEFMRNLNGVFWELHKNLLRLVASDGFRLALAEEQIENEEEASFLLSLKSMKEVQNVLDNTTEPTITVRYDGRRVSLSTNDVETVMRVVDAEFPDYKRVIPETFKTKVVVSRKELRESLKRVMVIASKGSESVKFEIEENVMRLVSKSPDYGEVVDEVEVQKEGEDLVIAFNPKFIEDVLKHIETEEIEMNFVDSTSPCQINPLDISGYLYIVMPIRLA | soluble
10 | MGSDKIHHHHHHMKYISPGDWFSLEYPMGWHEFEDTEESFLFYNPDRWTGNFRISAYKDEAADYGPQCIAYELKENTSSALVKVGKWDCAYSAETFQEEGAWYTTHIWVTGEGDLSFECSFTVSKGGDKHPAEEIIRSLQVRKEGVSHPREIIPIRVLEIGEVNTAFEWASTTIKKQLTKDFTASESDIDSIQQVMDSGRFQTQQRMAWENFGIAFGAILVNEMEGMEWVTVIEGQKEYPALQFMCSDMVLDPAALVWGKAKKGLPCDLKSEFRKIKREAEAVLDDLNK | not soluble
11 | MGSDKIHHHHHHMKYRTVFDIIGPVMIGPSSSHTAGAARIGRVARTLFGQQPERCDIYFYGSFAETYKGHGTDVAIVGGILDFDTFDPRIPRSLQLAKEKGVRVYFHEEEAITDHPNTAKVVLQKGEDQLEVVGVSIGGGKIEIVELNGFHLKLSGNHPAILVVHTDRFGVIASVSNMLAKHEINIGHMEVSRKEKGKEALMVIEVDQNVDDLLLQELERLPNIVTVTKIHD | not soluble
12 | MGSDKIHHHHHHMKYSLGPVLYYWPKETLEDFYQQAANCSADTIYLGEAVCSKRRATKVGDWIEMAKTLAASGKQIVLSTLALVQASSELGELKRYVDNGEFLIEASDLGVVNLCAERKLPFVAGHALNCYNAVTLRLLRKQGMVRWCMPVELSRDWLANLLTQCEELGIRNQFEVEVLSYGHLPLAYSARCFTARSEDRPKDECETCCIKYPTGRSMLSQENQQVFVLNGIQTMSGYVYNLGNELTSMHGLVDMVRLSPMGNETFAMLEAFRANENGAAPLDLTSNSDCNGYWKRLPGLVLHA | not soluble
13 | MGSDKIHHHHHHMKYVVVSGGVISGIGKGVLASSTGMLMKTLGLKVTSIKIDPYMNIDAGTMSPLEHGECFVLDDGGETDLDLGNYERYLGVTLTKDHNITTGKIYSHVIAKERKGDYLGKTVQIVPHLTNAIQDWIERVAKIPVDDTGMEPDVCIIELGGTVGDIESAPFVEALRQFQFKVGKENFALIHVSLVPVIHGEQKTKPTQAAIKGLRSLGLVPDMIACRCSETLDKPTIDKIAMFCHVGPEQVVNVHDVNSTYHVPLLLLEQKMIDYLHARLKLDEISLTEEEKQRGLELLSKWKATTGNFDESMETVKIALVGKYTNLKDSYLSVIKALEHSSMKCRRKLDIKWVEATDLEPEAQESNKTKFHEAWNMVSTADGILIPGGFGVRGTEGMVLAARWARENHIPFLGVCLGLQIATIEFTRSVLGRKDSHSAEFYPDIDEKNHVVVFMPEIDKETMGGSMRLGLRPTFFQNETEWSQIKKLYGDVSEVHERHRHRYEINPKMVDELENNGLIFVGKDDTGKRCEILELKNHPYYIATQYHPEYTSKVLDPSKPFLGLVAASAGILQDVIEGKYDLEAGENKFNF | not soluble
14 | MGSDKIHHHHHHMLANQNVRARVQNHQLFSSLNEAQLAKIFATASLLHIKPEQMLFHQGELASRFYFVLAGTLQLFRTNVQGQMKVIEVVRSGCTFAEALMFNKQTRFPVSAQSVSECALVSFDSETYLQLLKHNPDACIAIMADLSVRIRKHINEVEMVSLQNAQHRLLLFLLRKMTVVGDNQGEITLDIPKRLLASRLSIQPETFSRLIKKMSQTGLIAESHGVIRIPDVALLYASTDISITQPTFNQQGPSSAIPLVCN | not soluble
15 | MGSDKIHHHHHHMLDENFEALRREATAWIVRITSGTATTEDAEALLRWRSRSDAHEQAFQQSARLWKNLGSALGETRKTSASTVTRRSFIAAGSVAAGAAGVGVVLSELGFLPSVDAMLADYATGVGEQRTVELVDGSTAILDGGTTLSLDYSPSSRHLVLTSGAAVFDVVHDAARPFVVTAANGDTTATGTSFSVKHGEEDVSIECLEGHITVQCLGDSQLNGGEGISYSRAGLGKKVAADIETAAAWRRGLLIFEDRPLADVVSDLNRHRRGRVVIASSDLRSRRMSGVFHLNRPDEILAHLEETLQVRPVSLVGGIVLLR | not soluble
16 | MGSDKIHHHHHHMLDFNHQPSIAERINALIDSGLIADRDATPPRAYLGGSRLGHSCERALQFEFAGAPKDSGADFNGQTLRIFAIGHALEDVAIRWLRRAGFDIYTRKGNRPDGEQFGFSVAGGQVRGHVDGILADGPVIPGMGYPALWECKTMNAKNWRETVAKGVTVSKPVYAAQIALYQAYMEGTVPGISANPALFTAINKDTAELHHELVSFDGELAQRISDRAVRILQATDAGELLPRMSSDPDYFECRFCPWKTRCWA | not soluble
17 | MGSDKIHHHHHHMLDIKYYVLIDAIATHGTVHDAAAAIGITQPAATHRIREMERRLGVALFHREGRRLTLSASGERLLDTAHAVLPQLRNAELEAWQLARRAEPALRLGIGPYDTFSRAIPHLYDQHERDIDLVRLPMADMTTALLANRVDMICMIEVPSQRGIAHQLLFEEPLVAVLPPDHPDAQSDTIPAEVFDRGRHFTYSITPESGHEFEHFFQPAGVYPSHMVQIESVALILELVAAGKGVSILSRWAARDAHQAGHVVMRPLAGDIPRIPWYLAYTQTPHIAAVAEPLADTLRHLYRADE | not soluble
18 | MGSDKIHHHHHHMLDNSIPTDSCLVSGATVSTDIETLYCNHHDWLQVWLRRRLSSAVDASDLAHDTFVRVLVSGRMPNAEQSRAFLTQIAKGLAVDLYRRRAIEEAYLAALAQLPENLAPSAEERVLALQVLLLLDTALGSLPSRVREVFLLSRLDGLTYSDIAQRRGISVATVRKYMLRAAQACHCVLNSPTGTAP | not soluble
